# Reference: paper PMC2173742 (The Journal of Cell Biology, 2003)
# B1: Ase1p–MYC–6xHis (natural protein, budding yeast, UniProt P50275 1-885, looked up)
# chain: METATSSPLPIKSRRNSENSGSTTVIPHMNPSLATPLTVSTMVNQSNSKEFMKLTPVRIRDFGSPLKNVSTNYHFLDSENGKGNTMDNMYRENFILISKDLEKLLENLNVIYQNIGYSNTEIITKEKIIFTTISNSIKQFFEQADEELKRLSAENGIEQDILNNILERINDPSGIKTIPDLYIRNAILLQESKTVPQSPKKPLSLLSKKAALDTAKKFVLGSFLPRLRDYLKSLITLKHLIQSVKENLPGLTEADNEAIAEFPELSTLTAYLLQIENGKGDIGLSMKFIIDNRKDILKGSAFKTINEESVKHMNEVIKIYEEEYERRFKSVLTKKVSISSICEQLGTPLATLIGEDFEQDLRSYGEEENSTSEIPNFHPVDRERMSKIDITLEKLQAIHKERADKKRLLMEQCQKLWTRLKISQEYIKTFMRNNSSLSTESLGRISKEVMRLEAMKKKLIKKLISDSWDKIQELWRTLQYSEESRSKFIIVFEELRNSATTLQEDELLLETCENELKRLEEKLTLYKPILKLISDFESLQEDQEFLERSSKDSSRLLSRNSHKILLTEEKMRKRITRHFPRVINDLRIKLEEADGLFDQPFLFKGKPLSEAIDIQQQEIEAKYPRCRVRMQRSKKGKCGANKENKVIKNTFKATESSIRVPIGLNLNDANITYKTPSKKTIQGLTKNDLSQENSLARHMQGTTKLSSPNRRATRLLAPTVISRNSKGNIERPTLNRNRSSDLSSSPRINHTHGEHAVKPRQLFPIPLNKVDTKGSHIPQLTKEKALELLKRSTGTTGKENVRSPERKSSLEDYAQKLSSPYKEPEHSIYKLSMSPEGKFQLNIQQKDIESGFDDTSMMEDENDKDFITWKNEQVSKLNGFSFTDI
# Assays:
# [1] = molecular target: bovine Taxol-stabilized MTs (bovine) (UniProt Q6B856); test: co-sedimentation
# [2] = molecular target: the molecule itself; test: SEC + other: velocity sedimentation
binder,measurement,setting,value
B1,Kd,[1],300 nM
same,stoichiometry N,[2],2
